Test results from paper PMC10123104, “YbiB: a novel interactor of the GTPase ObgE”.
Residue numbers refer to the chain shown, from its start.

How the values were obtained:
YbiB Arg123Glu = target: T1, YbiB Arg123Glu (Escherichia coli BW25113, UniProt P30177 1-320, R123E); assay: EMSA; EMSA: 20 mM HEPES pH 7.5, 150 mM NaCl, 5 mM MgCl2, 2 mM DTT, 5% glycerol, 30 min at 37 C; 6% PAGE in 1x TBE at room temperature; settings: protein: recombinant; tags: N-terminal His6, thrombin site (pET28a); chain copies: 2; label: 5'-32P; single strand
T1 sequence: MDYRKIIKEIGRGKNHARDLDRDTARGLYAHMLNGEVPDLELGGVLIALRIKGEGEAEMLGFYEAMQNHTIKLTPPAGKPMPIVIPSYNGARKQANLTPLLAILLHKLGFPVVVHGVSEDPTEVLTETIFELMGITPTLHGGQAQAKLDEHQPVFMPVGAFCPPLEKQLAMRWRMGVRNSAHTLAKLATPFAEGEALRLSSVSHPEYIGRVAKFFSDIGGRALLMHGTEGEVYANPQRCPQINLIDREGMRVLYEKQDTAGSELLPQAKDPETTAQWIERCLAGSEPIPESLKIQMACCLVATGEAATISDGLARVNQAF

YbiB Arg92Glu = target: T2, YbiB Arg92Glu (Escherichia coli BW25113, UniProt P30177 1-320, R92E); assay: as above; settings: protein: recombinant; tags: N-terminal His6, thrombin site (pET28a); chain copies: 2; label: 5'-32P; single strand
T2 sequence: T1 sequence with R92E, E123R

B1: EMSA_probe (58-nt ssDNA) (ssDNA)
DNA: GCTTTTGATGTACCAATGCATCACCATCACCATCAGGAAATGGGTAAGATGCTTGTAG
B1 was tested, and the binding signal (YbiB Arg123Glu) was > 10 fold higher apparent KD than WT and the binding signal (YbiB Arg92Glu) was > 10 fold higher apparent KD than WT.
